Source: patent US20200317779A1
Positions count from the first letter of the chain named. One block for each binder: values may come before it.

Assays:
[1] = biological target: recombinant cynomolgus monkey CD3ε/δ heterodimer (cynomolgus monkey) (UniProt Q95LI5); assay: ELISA, coated CD3ε/δ
[2] = biological target: recombinant human CD3ε/δ heterodimer (human) (UniProt P07766); assay: ELISA, coated CD3ε/δ
[3] = biological target: recombinant cynomolgus monkey CD3ε/δ heterodimer (cynomolgus monkey) (UniProt Q95LI5); assay: BLI (Octet), antigen on anti-Penta His sensor, antibody 50 nM
[4] = biological target: recombinant human CD3ε/δ heterodimer (human) (UniProt P07766); assay: as above

Chain of recombinant cynomolgus monkey CD3ε/δ heterodimer (cynomolgus monkey) (Q95LI5 22-117, stated change not applied, chain 1 of 2): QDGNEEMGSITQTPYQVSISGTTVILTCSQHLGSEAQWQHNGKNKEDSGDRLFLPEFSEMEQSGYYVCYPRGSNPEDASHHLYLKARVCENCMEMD
Chain of recombinant cynomolgus monkey CD3ε/δ heterodimer (cynomolgus monkey) (Q95LI8 22-105, stated change not applied, chain 2 of 2, further chain): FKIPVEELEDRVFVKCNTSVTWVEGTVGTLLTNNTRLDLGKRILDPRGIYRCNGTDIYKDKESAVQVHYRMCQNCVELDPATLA
Chain of recombinant human CD3ε/δ heterodimer (human) (P07766 23-126, stated change not applied, chain 1 of 2): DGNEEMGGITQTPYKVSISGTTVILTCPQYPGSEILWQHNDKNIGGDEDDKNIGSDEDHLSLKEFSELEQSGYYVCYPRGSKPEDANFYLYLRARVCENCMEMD
Chain of recombinant human CD3ε/δ heterodimer (human) (P04234 22-105, stated change not applied, chain 2 of 2, further chain): as the sequence (Q95LI8 22-105, stated change not applied, chain 2 of 2, further chain) above, with V5I, K15N, V20I, T32S, N33D, N34I, A64T, N74S, L83V counted along it

Absorbance (450 nm) [1]: 3.16
Absorbance (450 nm) [2]: 2.71
Kd [3]: 0.627 nM
koff [3]: 0.000328 s⁻¹
kon [3]: 523000 M⁻¹ s⁻¹
Kd [4]: 0.521 nM
koff [4]: 0.000193 s⁻¹
kon [4]: 371000 M⁻¹ s⁻¹
B1: B15 (antibody, human IgG1, lambda, L234A L235A, V domains shown)
VH: EVQLVESGGGLVQPGGSLKLSCAASGFTFNTYAMNWVRQASGKGLEWVGRIRSKYNNYATYYADSVKDRFTISRDDSKNTLYLQMNSLKTEDTAVYYCVRHGNFGNSYVSWFAYWGQGTLVTVSS
VL: QAVVTQEPSLTVSPGGTVTLTCRSSTGAVTTSNYANWVQQKPGQAPRGLIGGTNKRAPWTPARFSGSLLGGKAALTLSGAQPEDEAEYYCALWYSNLWVFGGGTKLTVLG

Absorbance (450 nm) [1]: 2.93
Absorbance (450 nm) [2]: 2.37
Kd [3]: 0.66 nM
koff [3]: 0.000308 s⁻¹
kon [3]: 466000 M⁻¹ s⁻¹
Kd [4]: 0.445 nM
koff [4]: 0.000144 s⁻¹
kon [4]: 322000 M⁻¹ s⁻¹
B2: B16 (antibody, human IgG1, lambda, L234A L235A, V domains shown)
VH: B1 VH
VL: B1 VL with G71D
